Experimental data published in a protein production outcome set (Wang et al. 2014).

test: label from the status in PepcDB records

Row | Sequence | protein production
1 | MRHDIRAPETFRRYCLPSRPRGCPLKTYVIGDVHGRADLLKALPSHIEENDPNGCGYRVIFLGDIIDRGPDSMKAMEMVVRELNQNPESRLILGNHEEFMLLFLDRPDKREIVFDHWMRNGGLAAAASYGLNVGGRYGRIEEAHESLLELLHRRQNHIDAMRRAASLINDGANVFVHAGLRPGVPFEQQTTKDLRTIRSGFLDNDFDFGAMVVHGHTVTSSGLPEIRRSRIALDTGAGAGGCLSMMMVDDDGARTFFQSGSAREVVKVELSQRPDEP | failed
2 | MRHLPYPLLGLFLALSSTGAALAGEQYYPLDKGSAPYAVAPSAQGAVWYGADGGHSLGRLDPTSGESVQVPLGEGARPRAIVSDESGNAWVLDSGLNAILRIGGERLGSERFPLPAKAAPAGLESAVFDDDGRLWFTGSRGFHGRLDPARRLVEVWPSPQGKAANGICVTPDGEVWYAQDDALVHVDPLDGSAERLPAPEGTKALRGIGADSIGRLWASDSGGARLYRYDPSDASWQSWPLPDSQARPDSLRVDAMDRVWLHDAASGALLRFDSEQATFRVLPSDRPAPGNALLGGRPGETWSAEPAADRLRVVRD | failed
3 | MRHYETMFILKPTLVEEEIKSKIEFYKEVITKHHGVIETSLDMGMRNLAYEIKKHKRGYYYVAYFKAEPSMIVELERLYRINEDVLRFIVIKYESKKEVEAWHALVDRANKKPSHAKEKHEKTEHTHSHHTEEAESVGSHSE | failed
4 | MRIAALFTCIIGVFMLATSVQAAQPADITRLSNGLTVLVLKDDRFPLASLRLYVHAGSAFETPEEAGISHLLEHMVFKGTVKRPKGQVARDVESVGGYLNAATSFDYTVYLTDMPSTQWKLGMDVLRDMAFEPALDPAELESEKDVVIAELQRGEDSPDSRIFQSLQAGTLKGTTYERPIIGYRETIRATTADTMRAYIRKHYQPQSMLLTVVGNVDPAEVRAEAERLFGGLTNDQNITPPAAIDARAFAHGPVVNVEHGPWKKVYLGVALPVPGLKALQAAQLDMLSQLLGGDPTALLYRTFKYEKQLVDDISVANYSFERVGMLYITAELDADKVETFWKELTTMLAGLKADAFTEQEFERARLNIEDGLYRSKETVAGLASKEGYFQFFSDGPQGEANYLQAVRDVERPQLEALIRDWLRPERLTVSVLLPEGTKAPALAATLKSTWPSKGKAAEEGNAAAVGKTETVDLGGGRKVVLIPDTTLPYTALDMVFSGGNALLDQNRQGLAALTASVLTKGTLKHDAPTLEAFQSDRAASLGASAGRRTFTLSLREPSRFDGDMFGLLHEVLTTPALAPDEVAREKRNQVASIRAREDQPLGLAFRHLTPFLFPGHSYGFYHLGQPETVEGFTRDDVKAFWARQAAQPWVMSVAGSFDREAVLRFAKSLPAPSGKPVSLDAPAWTPEKALDLRLPERNQAHLLLVFPTVGLAHKDTPALELLQSVLAGQSGLLFRDMRDKQGLGYTVTAMNWQSDLAGFMVLYIGTEPGKLEQAEAGFRKVIDQLHATALPDEELRRGKNQMRGDYYREHQRLGSRSSEAAMLTSQGYPLLFNREVIDKAEKLAPSDLERVARTYLDMNKVRVVKVLP | failed
5 | MRIASLVPSITELLFDLGLADQLVARTGFCIHPEPAVRAVAKVGGTKDVKLDRLRALAPTHVVVNIDENRRETVDEIRTFVPHVIVTHPCAPEDNLALYRLLGGIFGRLEHHHHHH | failed
6 | MRIAVVGATGRIGSKLTRTLLGAGHQVKALSRGGAALEALVEAGAEPFLGSFDTGAGALDTFFQDVEAAFLMVKTDWNNIEGHYPAVAQRFVDALRGSPVKLAVSLSAMGSDVDGKTGHFELFHHLDQRLNELNDIDMVHLRAAWFMENTLAWTASVAKYGRLAWFYEPDLKMPWVATDDIAGLAAKELTNPTGDHRVIRETGSEDLTMNELAAMIGREIGKPVEYRFIDRGRKEIENEYLARFGTPEHWLDDSRSADALNHGVVRFQGGDDVRPVLPTTMEAFLKTIWTPRYLEALASEGKPETFEMWCAR | failed
7 | MRICLFLCLCLCMASPALAQVAVFPALSGKTDAQTLVVYSSLDEPLATPMIEGFQKANPDIAVHYEDMLTGEIYDRIVKETDAGKKTADFAFSSAMDLQVKLSNDGYAQRSDLAMSARWPAWANWRNTAYALTFEPAVFVYHKPSFTTEKPPATRAEFVDYLERHAKEVHGRIATYDIERSGVGFLFMSRDQEQFGDIWSVIKAMGAAGVKVYSTSSAILERVSDGRFVLGYNILGSYAADWASRHPDVGIVLPKDYTVVMSRIGLVPEAAANPELGRRYLEFFMSKEGQTIMARQLQIPAVSPEVAGENTANTMQAIHGAQLRPVPVSPGLMVYLDQVKRSR | not failed
8 | MRIDKFLQSVGLVKRRVLATDMCNVGAVWLNGSCAKASKEVKAGDTISLHYLKGIEEYTILQIPALKNVPRKDTHLYIAPKTKE | failed
9 | MRIFGKARHRPSASWRQATDRAFTLIGDGRYEDAGALLTRAADLEPWLSESWFNLALLHKFRHDWEQARAAGLRAVALLDRDIGAPDWWNVGIAATALQDWPLARRAWQAYGLRTPGGATDAGEPLGMDLGSAAVRLSPEGEAEVVWGRRLDPARVEVLSIPLPSSGRRWGEVVLHDGVPHGERTTSAGHSYPVFDEIELWAPSPVPTWVVLLEAATESDRDALEQLAADAGFAAEDWSSSVRLLCRMCSESRMPSDEGDGEHLDPHDHSEPGHPGPLGHRTDGQLWVPERECGVAAPAGLVKGLLDGWVADSPDSRDWRDLEEVC | failed
10 | MRIFIIKSSTAHTAFDYSIKDIPGTSGRLDLICRSLNAAFQLSHSFRKNVRVYTVLYGPPDPPKTIRFEGAKIKPKTLNPDEVSTAKLIGKILNAGKDIKEPTKEREVLPGIYISRMTFEDVVRKNIKYNLYLLEENGVDIEKVKFPQDNVGFILGDQNGFTEEELNFLEGLVPKITIGPKPYLTSHVIAFVNIYLDRIGIP | failed
11 | MRIHSIILLLFLLVISPVAGSISITDSTASKFDRYFYEGVRQREQENYAAAFDIFRYCHRLNPNDAALLSELGKLYIAIGRQEEGTRYLEQAYRLYPDNKNYGNILGAVYERQGRADDAVRLYEEMSEQFPSEDELRFKLANMYVQAGEIDKAIYIYNRMEAQNAVNAADASNYAEIRARLYLMTGQTNKALNELRRLCNRFPEVNEFRLKYAGTLLDSEKYDEAYEQLQLIARTDSTSGLYHFAMASYYLGTNEKEAAINEMIKVAADKDVAPEQKLPIILRFIGTDTDEEDAPKKEYNILLEKILASHPTEVDARLFYAELLEMQGDSIHAMEVCRPITEFAPKEERAWKFMLGRAVTGQNHTEVHRISEQARQYLPGVPLFYLYDAISYYIEKKGSEAKHILQEALEHIDAEKDPNGLSDIYSQLGDLAYEENKPEEAFANYEKALELNPRNVGVLNNYAYFLAKEGGDLAKAERMAAQCVKLLPDNAVSLDTYGWVFFLRENYTLAKLYIEKALGLAADNPDADVVEHHGDVLYMLGEKEKAMLEWKRAKEIGGGGSPMLDKKIEQGKYIPEKKK | failed
12 | MRILADTNVIIDALTSREPWNKSAEEIFLMAANHTIEMYITASSATDIYYLIRKHLHNTETAKMIMGKLYSLTGILEVTADDCMDALASAISDYEDAVVEKVASRKDMDYIVTRNIKDYQAGGTKIILPDDFVKLVEEELEHHHHHH | failed
13 | MRINLQSLGCRLNEAELESWAREFQAAGHRLVSETGDADLIVLNSCAVTAEAVRKSRQMIRRTQRLSPRARLVLSGCYATLHGDEAAALGVDLVVSNADKSRLVEIAARELALEAMPEFSTEPGEAALFALGRQRAFVKVQDGCRYRCTFCIVTVARGEERSRLPAEVIREIRRLQAEGVQEVVLTGVHLGGYGSDLGLPLDALIRSILQETEIPRLRLGSLEPWDLPPGFFDLFENPRFMPHLHLPLQSGSDTVLKRMARRCKSEEFARLADHARRQVPDINITTDIIVGFPGETEREWEESLQFIETIGFGDIHVFTYSVREGTKAAAMGGHVPAEIKKERSRVLHELALGQKRALLGRFVGREMPVLWENRRDGADRGYTPNYLRVAIQTPETGLTNRITPVRLVKVDASGEFLWCGPVTLPPAAPADTRWRR | failed
14 | MRINTRRKKWAAVAVVTLVSVIASVIVTVIVVGTLDPQSLRPAIIVPLLVAPLATHWGAERLLEIDKLNQQLAHLNRIDQMTQLYNRACLLEKLEQEPEEAGMILIADIDHFKQINDTYGHDVGDLVIIEVARVLQRSSLPEGIAARFGGEEFVIYVPRLDLEAAEFRAEAIRQAVEAQSVMIDGRKLSCTISIGIEIRQMQENVGDVLKRADEALYRAKAQGRNQVVAARRLARAGKSRETAQARRAP | failed
15 | MRIPYIDCGMNSLFFITLLGSFFTVAQANSSSDLLELPATNSALAIKSVLMAMTPNNDAILVVGERGHIINWQNDDNWQQLQSPVSVAITDVTILSDGSKVAVGHDGVILKVDSNSTTWRKVFTGKEITQFQIAQLKQQYQSLEQVILQTQDEDELEELTYQLDDLTFAIEDNQLELKSGPNKPLLSVTSTSNDTLFASGAYGILLSSKDKGETWQLVSNHLDNPDRFHLNTVIATADDQLYIVGENGMGFHSTDVGQTWSVMTLPYSGSLFGILANTVKTHTISTDDINSTKNKTQLVAFGLQGNIMVSLDGGGNWQHIKLPRSTSLLGGNFSKQGKVYLVGHGGVIVSFYPENLSTLTIKKHPSGAALSSVLVKDNSLILAGQFGISQWPIEAEE | failed
16 | MRIQIQKLSYRDIDSFIELLDVFEEVFEMKNFEMPSVEHLEELLGKDDFFVFVARSEGTIVGGLTAYSLTQYFSKSPLLYIYDVAVMKRHQRKGIGKKLIMGIKDYCKDSDIGEIIVQADEADEHAIEFYQSTGAKAAKVVQFYYALNG | failed
17 | MRISCMSSFLTSDVLIAFSVTFLAGLATLLGGAIVLFFKQPSLRLLSFGLAFSAGAMVYISLTEILNKSIHSFSEVFSAKVGFAFATFAFLTGVIAILLLDRCVPNPHTMLEKTTAQQLDQTQLRRTGLLTMLAITAHNFPEGLATFFATLDSPILGAPLAVAIAIHNIPEGIAIAVPVYMATGQKSYAIWASLLSGLAEPLGAALGYFILAPYMGATMYGIIFGLIAGVMVYLAMDELLPAAKKYSQGHETVYGLVTGMAALATSLVLFQWV | failed
18 | MRISKMLVTELNIYPLKSARGIALKESAVSAEGLPGDRRAMLTDPSGHFITQRELPAIATVLARHEDGGMALSRERSGEIFARPSGQRMDVAVWKSIVSANIADDETNDTLSAWLGREVKLVFFDDAAKRIASLEWTGNETPVTFADGYQILVTTTASLAALNDNMRGNGEDAVGMERFRPNIVLETEEAWAEDRWAAIEIGGIRFDLVKPCARCIMTTQDQMTGSRDVPSPMKAMGRIRMSGDRRVPGPLFGWNVTPRGEGRLSVGDVARVVEERPEGWAIKRRLEHHHHHH | not failed
19 | MRIVIAGGHGQIALRLERLLAARGDEVAGIVRKAEQADDLRAAGAEPVVLDLESASVEEVAERLRGADAAVFAAGAGPGSGVARKDTVDKAAAVLFADAAVRAGVRRFLIVSSMGADPGHQGDEIFDVYLRAKGEADAYVSSLDALDWTILRPGALTDDAGTGLVRLEAHTGRGPVPRDDVAAVLAELVDTPATNGLALELISGSAPVSVAVKSVAGN | failed
20 | MRKARGIKLIAVFLVAAVVNVVFGFCVLAKAQILKKPAENSYVFDYANLIDSSDEEEMRALAKEIEDKSKAEIVVVTVETLGSYTIEEYANELFRSWEIGDKELNNGVLILVNKENLLLGKKGRIRIEVGYGLEGAITDGKAGRTLDEYAIPAFERNEYSKGIRDTFLAVASEVANEYGLKIDGLSGYGASEDVNENEVTSDGNAENVVDVPFGLGIGAGLIVGFGLFFFIIFLMVIVILYNQPYAGKKYEWTWKNGKWEKKVYVYRYDDLWKNNRSFFDDSDDSDSFGSGGGFGGFGGGSSGGGGASR | failed
